Results from publication PMC13086964, “USP7 deubiquitinase stabilizes FAN1 to support DNA crosslink repair and suppress CAG repeat expansion” (Nature Communications, 2026).

Target: USP7 TRAF domain (residues 2-207), biotinylated (UniProt Q93009)
Test: fluorescence polarisation
Conditions: read at the highest USP7-TRAF concentration, about 190 µM; parent: est. 100; read off a plot

Sequence of USP7 TRAF domain (residues 2-207), biotinylated (Q93009 2-207): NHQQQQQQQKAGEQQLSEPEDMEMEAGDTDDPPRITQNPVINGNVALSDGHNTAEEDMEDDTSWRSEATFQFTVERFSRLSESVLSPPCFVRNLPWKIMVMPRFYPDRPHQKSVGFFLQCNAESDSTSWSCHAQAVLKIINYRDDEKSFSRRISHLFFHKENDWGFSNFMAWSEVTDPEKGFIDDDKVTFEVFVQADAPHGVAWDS

response (% (normalized FP))	Substance
30	FITC-labelled FAN1-derived 8mer peptide, wild-type (181-PQSS-184 region) S184A
99	FITC-labelled FAN1-derived 8mer peptide, wild-type (181-PQSS-184 region) Q182A
100	FITC-labelled FAN1-derived 8mer peptide, wild-type (181-PQSS-184 region) P181A
